Reference: patent US20250109171A1, “COMPOUNDS AND COMPOSITIONS FOR TARGETED THERAPY OF RENAL DISEASES” (SHANGHAI MICURX PHARMACEUTICALS CO., LTD., priority 2021, published 2025)
Positions of bridges follow the written chain, without caps; N, C: chain ends. Non-standard residues stand in square brackets, D forms with d. Residues, ends and D or L forms follow the SMILES beside them. *: point of attachment. Succinyl(O21-dexamethasone) = C[C@@H]1C[C@H]2[C@@H]3CCC4=CC(=O)C=C[C@]4(C)[C@@]3(F)[C@@H](O)C[C@]2(C)[C@@]1(O)C(=O)COC(=O)CCC(=O)*; X1 = CC(C(=O)OCC(=O)[C@@]1(O)[C@H](C)C[C@H]2[C@@H]3CCC4=CC(=O)C=C[C@]4(C)[C@@]3(F)[C@@H](O)C[C@@]21C)C(C)C(=O)*; Dab = NCC[C@H](N)C(=O)O

What was measured:
[1] = Rodent (mouse) PK model of intravenous administration: dexamethasone levels in kidney tissue; type: in vivo; conditions: for Kidney drug (dexamethasone) concentration: T = 24 h, the last time point evaluated; for Kidney dexamethasone levels greater than those achieved through injection of unconjugated dexamethasone: drug concentration in kidney tissue, summary of Table 1
Description: Preferential renal targeting validating the delivery of compounds provided herein into kidneys (or at the site of a kidney injury) is evaluated, for example, by pharmacokinetic (PK) tests, such as in a standard rodent PK test. PK data are generally used to establish the key parameters predictive of the therapy outcome. Thus, a drug concentration (C) at given time points, drug concentration at the target tissue(s) (CTarget), area under the curve (AUC) for a plot monitoring the change in the systemic drug concentration over time and other parameters are generally predictive of therapeutic efficacy. For example, drug concentration at an organ affected by cancer is important for effective action of anticancer agents (as described, for example, by Zhang et al. in Drug Metabolism and Disposition. 2019, vol. 47, p. 1122).
Representative compounds provided herein were tested in a rodent PK model of intravenous administration performed analogously to methods described in the monograph Current Protocols in Pharmacology, 2005, 7.1.1-7.1.26, John Wiley & Sons, Inc. Illustrative mouse PK data for the compounds of Examples 1 and 2 are summarized in the Table 1 below.

[2] = test system: cisplatin-induced acute kidney injury (AKI); test: Cisplatin-induced acute kidney injury mouse model (blood CREA and BUN on day 3); type: in vivo, C57BL/6 mouse; conditions: cisplatin 20 mg/kg i.p.; test articles i.v. after 1 h, 4 mg/kg; about 20% dexamethasone equivalent dosing; FIG. 1
Description: Specifically, in one of the tests, cisplatin (20 mg/kg) was administrated to C57BL/6 mouse (male, weight range 20-25 g) by intraperitoneal injection to induce acute kidney injury. After 1 h, testing articles (saline, or dexamethasone, or a compound of Example 1 or 2) were given by intravenously. On day 3, blood CREA (creatinine) and BUN (blood urea nitrogen) were determined.

[3] = T = 3 h, injection into mouse tail vein
[4] = T = 3 h, injection into mouse tail vein, dexamethasone 1 mg/kg, Examples 4 mg/kg

| Drug levels from standard injection of unconjugated drug ([1]; after only 6 h) | concentration at 3 h ([1]; kidney, intravenous, T = 3 h, injection into mouse tail vein, dexamethasone 1 mg/kg, Examples 4 mg/kg, read-out: Kidney tissue concentration (dexamethasone levels in kidneys)) [ng/g] | Compound | Enhanced dexamethasone levels in kidney expressed per ratio vs. dosing of free dexamethasone [1, 3] | Kidney tissue concentration (dexamethasone levels in kidneys) [1, 4] [ng/g] | Kidney drug (dexamethasone) concentration [1] [ng/g] | Kidney dexamethasone levels greater than those achieved through injection of unconjugated dexamethasone [1] | Anti-inflammatory efficacy in the AKI model per BUN and CREA values, compared to dexamethasone [2] |
| --- | --- | --- | --- | --- | --- | --- | --- |
| virtually undetectable | 13 | C[C@@H]1C[C@H]2[C@@H]3CCC4=CC(=O)C=C[C@]4(C)[C@@]3(F)[C@@H](O)C[C@]2(C)[C@@]1(O)C(=O)CO [Dexamethasone, dexamethasone, reference compound] | 1 |  |  |  |  |
|  |  | CC(C)C[C@@H]1NC(=O)[C@@H](Cc2ccccc2)NC(=O)[C@H](CCN)NC(=O)[C@@H](NC(=O)[C@H](CCN)NC(=O)[C@@H](NC(=O)C(C)C(C)C(=O)OCC(=O)[C@@]2(O)[C@H](C)C[C@H]3[C@@H]4CCC5=CC(=O)C=C[C@]5(C)[C@@]4(F)[C@@H](O)C[C@@]32C)[C@@H](C)O)CCNC(=O)[C@H]([C@@H](C)O)NC(=O)[C@H](CCN)NC(=O)[C@H](CCN)NC1=O (stereo partly shown) [Example 1] (X1-T[Dab][Dab][Dab][dF]L[Dab][Dab]T; lactam 3-C) | 9.4 | 122.2 | 21.5 | about 9 fold | greatly increased anti-inflammatory efficacy |
|  |  | CC(C)C[C@@H]1NC(=O)[C@@H](Cc2ccccc2)NC(=O)[C@H](CCN)NC(=O)[C@@H](NC(=O)[C@H](CCN)NC(=O)[C@@H](NC(=O)CCC(=O)OCC(=O)[C@@]2(O)[C@H](C)C[C@H]3[C@@H]4CCC5=CC(=O)C=C[C@]5(C)[C@@]4(F)[C@@H](O)C[C@@]32C)[C@@H](C)O)CCNC(=O)[C@H]([C@@H](C)O)NC(=O)[C@H](CCN)NC(=O)[C@H](CCN)NC1=O [Example 2] ({Succinyl(O21-dexamethasone)}-T[Dab][Dab][Dab][dF]L[Dab][Dab]T; lactam 3-C) | 7.2 | 93.4 | 18.5 | ~7 fold | greatly increased anti-inflammatory efficacy |
